The term Km denotes the substrate concentration at which the rate is half of its maximum. For orientation: kcat means the maximal rate divided by the concentration of active sites. As a reminder, the kcat/Km is the turnover number divided by the Michaelis constant.

Substrate in this series: OC[C@H]1O[C@@](CO)(O[C@H]2O[C@H](CO)[C@@H](O)[C@H](O)[C@H]2O)[C@@H](O)[C@@H]1O
The series can be described thus: initial sucrose consumption rate, reducing sugar (DNS) assay, Michaelis-Menten fit. It is filed as biochemical, Leuconostoc citreum. As to conditions: pH 6.5 phosphate 50 mM, 30°C, 1 mM CaCl2, total Km (hydrolysis plus transglycosylation). From the text: initial sucrose consumption rate, reducing sugar (DNS) assay, Michaelis-Menten fit on IslA2

B1: IslA2 (Leuconostoc citreum) (protein)
chain: DVNQPLLAQENFSGNKTEPVPDKSNKNESVKDSKVATSDELAKDSKVATSDELAKDSKVATSDELAKDSKVATSDELVKDSKVATSDELAKDSKVATSDELAKDSKVATSDELAKDSKVATSDELAKDSKVATSDELAKDSKAPTNDVSVRAEKKSSLIDSPELNVKMSEMTSVPNLISDENSKNLVNSNELINGLSKRSLEIAHQAGIDVSRLNDIQKAALNKIKLVNEDGNKYVLDNTGSDYTKNTIIDKNNPDDTTKTTHITFANLDDAIKLAQKPDPKTTIPVFNASQINNLPASIFKDAQTNKVEKMDVWDSWALQDSKTGEVYNYHGKQVVFALMGAPLVQGDTHIYMLYNNYNNAKLDGWVNAGPVFGYNAKPESQEWSGSAVVNSDDSIQLFYTRVADDWKQALATVNIKITNSENSLGIQSLQNDHILFEGDGYFYSRKDQLKPQADMFTLRDPKLIELDDGERYLTFEANTGIYDEASDQQTVNLNNYGGGLTYDVARMLGVVNNSNRALYSSTANGAIGLLKLKGDYFNPILDRLYKPLITAVGVTDEIERANIVPFNGKYYLFTDSRFNRSAADNSPMSMAPDGAMMMGFVSDSLFGDYKPLNGNGIVLVTNNSFTSRTNTYSWYTVPVKGRPDLMLVTSYMTNRGLASGTDQYSTFAPSFLLKIDGDQTHVLNTVTEQGDWVWGDDDHSIVELLALNTEDAYLTNNQKNINYSPDWSNIDGYGYPIVTNIKDVDLTFYISGILSPDSLFKNAPGRHQGARIIGSTSQYNTEKVSAIKEYTDDLNTIWYLVNLAGNNFWIKGSSLVTVPMTDSTFRNAYIVKDSDMYLDAPQGETNAKYYQSSNSYNDAYVIVGGEYKDAHGITWNLIKLNDKILWINKNSLAISFSRDLN
notes: C-terminal truncation, last 551 residues deleted; variable region, catalytic domain and transition region kept; 102 kDa plus 16 kDa N-terminal thioredoxin fusion, His tag; E. coli TOP10, pBAD/Thio TOPO, Ni-NTA
For the protein B1, the Km amounted to 24 mM, the kcat is 28.2 s⁻¹ and the kcat/Km was found to be 1170 M⁻¹ s⁻¹.

For the origin of these results see publication PMC2270844, “Functional role of the additional domains in inulosucrase (IslA) from Leuconostoc citreum CW28” (BMC Biochemistry, 2008).
